# Laboratory results from paper PMC10362293.
# Where two headings read alike, the source gives them in different places.
# B1: FoxP2 FKH domain, unlabeled (domain or fragment)
# chain: VRPPFTYATLIRQAIMESSDRQLTLNEIYSWFTRTFAYFRRNAATWKNAVRHNLSLHKCFVRVENVKGAVWTVDEVEYQKRRSQKITGSPTL
# Assays:
# [1] = molecular target: FoxP1 FKH domain, single-cysteine mutant N32C (on C61S) labelled with Oregon Green 488 (human); test: fluorescence polarisation
# [2] = molecular target: FoxP1 FKH domain, single-cysteine mutant N32C (on C61S) labelled with Oregon Green 488 (human); test: fluorescence polarisation; remark: listed apart in the source
binder,measurement,setting,value
B1,Kd,[1],38 µM
same,Kd,[2],18 µM
same,kon,[2],583 M⁻¹ s⁻¹
